Measurements published in publication PMC8673666 (PLoS Pathogens, 2021).

What was measured:
[1] = biological target: human integrin αvβ8 on M000216 melanoma cells (human (endogenous in M000216)) (UniProt P06756); experiment: flow cytometry on cells
[2] = biological target: mouse integrin αvβ8 on B16-mβ8 cells (mouse (endogenous in B16) | mouse) (UniProt P43406); experiment: flow cytometry on cells
[3] = biological target: recombinant soluble fiber knob of mouse adenovirus 3 (FK-M3) (mouse adenovirus 3 (MAdV-3)); experiment: SEC-MALS
[4] = biological target: mouse integrin αvβ6 on B16-mβ6 cells (mouse (endogenous in B16) | mouse) (UniProt P43406); experiment: flow cytometry on cells
[5] = biological target: mouse integrin αvβ6 on CMT-93 cells (mouse (endogenous in CMT-93)) (UniProt P43406); experiment: flow cytometry on cells
[6] = biological target: biotinylated fiber knob of mouse adenovirus 3 (FKb-M3) (mouse adenovirus 3 (MAdV-3)); experiment: SPR; […], single cycle; Biacore T200, 20°C; […] (CaCl2, MgCl2, […]; 1:1 kinetic model
SEC-MALS = biological target: the molecule itself; experiment: SEC-MALS
[7] = biological target: T1, soluble mouse integrin αvβ6 (sITG mαvβ6) (mouse, UniProt P43406;Q9Z0T9); experiment: SPR; […], single cycle; Biacore T200, 20°C; […] (CaCl2, MgCl2, […]; 1:1 kinetic model; details: both partners purified
T1 construct: also called mouse sITG αvβ6; source: bought: R&D Systems, expressed in and secreted from CHO cells

[8] = biological target: T2, soluble human integrin αvβ6 (sITG hαvβ6) (human, UniProt P06756;P18564); experiment: as above; details: both partners purified
T2 construct: also called human sITG αvβ6

[9] = biological target: T3, soluble human integrin αvβ8 (sITG hαvβ8) (human, UniProt P06756;P26012); experiment: as above; details: both partners purified
T3 construct: also called human sITG αvβ8

[10] = biological target: T4, mouse integrin αvβ6 on B16-mβ6 cells (mouse (endogenous in B16) | mouse, UniProt P43406;Q9Z0T9); experiment: flow cytometry on cells; details: one partner purified
T4 construct: also called mαvβ6

T1 sequence (P43406 31-988, chain 1 of 2): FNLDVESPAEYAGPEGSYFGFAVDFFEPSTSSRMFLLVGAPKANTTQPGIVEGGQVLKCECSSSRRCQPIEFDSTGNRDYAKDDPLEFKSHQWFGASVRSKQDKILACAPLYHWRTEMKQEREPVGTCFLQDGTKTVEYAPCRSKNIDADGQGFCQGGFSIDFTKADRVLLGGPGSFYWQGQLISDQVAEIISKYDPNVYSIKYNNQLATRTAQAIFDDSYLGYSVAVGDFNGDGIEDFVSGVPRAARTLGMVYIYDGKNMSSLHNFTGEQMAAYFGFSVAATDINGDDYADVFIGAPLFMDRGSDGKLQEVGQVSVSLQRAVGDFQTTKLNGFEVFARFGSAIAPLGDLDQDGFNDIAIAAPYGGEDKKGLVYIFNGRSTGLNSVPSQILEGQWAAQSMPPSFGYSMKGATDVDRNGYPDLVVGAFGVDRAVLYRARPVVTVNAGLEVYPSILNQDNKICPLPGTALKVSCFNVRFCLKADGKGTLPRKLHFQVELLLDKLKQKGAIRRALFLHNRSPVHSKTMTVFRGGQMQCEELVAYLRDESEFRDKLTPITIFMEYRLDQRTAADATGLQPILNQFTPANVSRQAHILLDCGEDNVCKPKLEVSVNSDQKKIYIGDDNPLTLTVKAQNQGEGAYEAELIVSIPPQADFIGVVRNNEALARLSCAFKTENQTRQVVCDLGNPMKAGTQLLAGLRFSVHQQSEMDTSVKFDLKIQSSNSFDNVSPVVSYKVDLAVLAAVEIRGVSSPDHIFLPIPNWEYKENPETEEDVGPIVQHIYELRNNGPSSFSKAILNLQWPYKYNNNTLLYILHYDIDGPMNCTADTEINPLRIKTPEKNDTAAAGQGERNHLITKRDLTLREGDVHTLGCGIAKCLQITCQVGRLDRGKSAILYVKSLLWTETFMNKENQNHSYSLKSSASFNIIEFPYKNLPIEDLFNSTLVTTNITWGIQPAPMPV
T1 sequence (Q9Z0T9 22-708, chain 2 of 2): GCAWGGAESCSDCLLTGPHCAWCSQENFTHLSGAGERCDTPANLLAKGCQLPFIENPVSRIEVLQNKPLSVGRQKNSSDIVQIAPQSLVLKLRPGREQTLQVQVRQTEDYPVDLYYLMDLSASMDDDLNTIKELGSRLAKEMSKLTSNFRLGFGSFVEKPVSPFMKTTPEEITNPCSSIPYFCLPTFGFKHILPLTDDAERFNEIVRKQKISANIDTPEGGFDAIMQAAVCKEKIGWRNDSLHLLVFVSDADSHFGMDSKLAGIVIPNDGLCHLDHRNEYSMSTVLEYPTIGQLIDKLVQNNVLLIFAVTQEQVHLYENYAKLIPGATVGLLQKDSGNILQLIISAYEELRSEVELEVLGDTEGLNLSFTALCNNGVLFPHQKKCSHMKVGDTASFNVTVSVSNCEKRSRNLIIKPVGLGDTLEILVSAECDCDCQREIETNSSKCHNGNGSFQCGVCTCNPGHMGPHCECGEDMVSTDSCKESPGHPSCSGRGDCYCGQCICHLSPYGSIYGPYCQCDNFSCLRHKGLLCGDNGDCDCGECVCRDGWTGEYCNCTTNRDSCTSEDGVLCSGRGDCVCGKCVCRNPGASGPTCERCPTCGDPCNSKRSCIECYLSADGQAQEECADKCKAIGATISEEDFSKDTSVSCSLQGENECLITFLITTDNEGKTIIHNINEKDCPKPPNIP
Chain of mouse integrin αvβ8 on B16-mβ8 cells (mouse (endogenous in B16) | mouse) (P43406 31-1044, chain 1 of 2): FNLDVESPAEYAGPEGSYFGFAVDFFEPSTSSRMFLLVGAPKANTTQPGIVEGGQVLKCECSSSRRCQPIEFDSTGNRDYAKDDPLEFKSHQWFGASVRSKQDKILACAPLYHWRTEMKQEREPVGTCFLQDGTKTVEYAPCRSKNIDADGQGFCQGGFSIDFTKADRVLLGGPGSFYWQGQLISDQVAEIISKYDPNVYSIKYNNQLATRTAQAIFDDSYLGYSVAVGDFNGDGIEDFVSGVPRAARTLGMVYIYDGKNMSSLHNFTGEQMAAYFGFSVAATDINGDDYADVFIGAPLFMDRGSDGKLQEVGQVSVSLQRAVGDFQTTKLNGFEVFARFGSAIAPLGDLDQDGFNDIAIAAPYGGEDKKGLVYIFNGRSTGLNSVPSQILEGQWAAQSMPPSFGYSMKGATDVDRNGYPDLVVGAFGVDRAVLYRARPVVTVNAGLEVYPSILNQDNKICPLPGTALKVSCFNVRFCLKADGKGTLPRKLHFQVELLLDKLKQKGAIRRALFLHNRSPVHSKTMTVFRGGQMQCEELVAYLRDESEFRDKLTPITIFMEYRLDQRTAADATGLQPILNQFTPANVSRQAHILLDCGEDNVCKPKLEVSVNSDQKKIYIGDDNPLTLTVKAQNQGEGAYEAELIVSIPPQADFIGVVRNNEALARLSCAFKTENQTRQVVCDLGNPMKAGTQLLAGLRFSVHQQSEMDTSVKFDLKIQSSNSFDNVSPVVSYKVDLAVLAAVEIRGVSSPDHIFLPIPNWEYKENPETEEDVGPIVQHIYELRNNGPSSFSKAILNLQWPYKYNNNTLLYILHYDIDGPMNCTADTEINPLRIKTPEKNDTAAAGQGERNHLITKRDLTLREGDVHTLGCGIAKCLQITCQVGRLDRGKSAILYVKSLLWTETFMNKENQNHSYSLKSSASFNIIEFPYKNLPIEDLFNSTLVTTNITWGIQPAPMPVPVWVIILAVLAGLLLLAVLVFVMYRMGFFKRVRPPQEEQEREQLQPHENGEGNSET
Chain of mouse integrin αvβ8 on B16-mβ8 cells (mouse (endogenous in B16) | mouse) (Q0VBD0 22-767, chain 2 of 2, further chain): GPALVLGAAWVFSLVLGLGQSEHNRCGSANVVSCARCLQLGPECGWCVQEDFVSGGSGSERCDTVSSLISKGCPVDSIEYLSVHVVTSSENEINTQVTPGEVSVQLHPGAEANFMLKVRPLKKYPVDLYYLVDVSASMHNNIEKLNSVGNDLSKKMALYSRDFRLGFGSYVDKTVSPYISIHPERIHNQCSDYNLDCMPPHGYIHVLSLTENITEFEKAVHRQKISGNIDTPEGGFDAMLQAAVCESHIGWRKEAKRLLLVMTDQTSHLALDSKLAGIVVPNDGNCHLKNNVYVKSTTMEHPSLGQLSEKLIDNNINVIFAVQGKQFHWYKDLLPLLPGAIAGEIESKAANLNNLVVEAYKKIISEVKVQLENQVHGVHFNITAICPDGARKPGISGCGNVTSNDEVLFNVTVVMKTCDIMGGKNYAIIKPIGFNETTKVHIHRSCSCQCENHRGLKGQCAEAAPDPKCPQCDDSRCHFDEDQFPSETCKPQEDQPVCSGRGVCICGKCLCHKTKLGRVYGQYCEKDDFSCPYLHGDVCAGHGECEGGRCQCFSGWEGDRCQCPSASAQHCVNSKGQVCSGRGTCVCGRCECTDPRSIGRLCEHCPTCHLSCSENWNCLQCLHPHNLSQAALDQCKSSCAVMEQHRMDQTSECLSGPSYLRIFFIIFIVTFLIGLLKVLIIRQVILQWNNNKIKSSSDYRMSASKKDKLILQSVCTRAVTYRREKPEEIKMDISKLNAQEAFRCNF
T3 sequence (P06756 31-992, chain 1 of 2): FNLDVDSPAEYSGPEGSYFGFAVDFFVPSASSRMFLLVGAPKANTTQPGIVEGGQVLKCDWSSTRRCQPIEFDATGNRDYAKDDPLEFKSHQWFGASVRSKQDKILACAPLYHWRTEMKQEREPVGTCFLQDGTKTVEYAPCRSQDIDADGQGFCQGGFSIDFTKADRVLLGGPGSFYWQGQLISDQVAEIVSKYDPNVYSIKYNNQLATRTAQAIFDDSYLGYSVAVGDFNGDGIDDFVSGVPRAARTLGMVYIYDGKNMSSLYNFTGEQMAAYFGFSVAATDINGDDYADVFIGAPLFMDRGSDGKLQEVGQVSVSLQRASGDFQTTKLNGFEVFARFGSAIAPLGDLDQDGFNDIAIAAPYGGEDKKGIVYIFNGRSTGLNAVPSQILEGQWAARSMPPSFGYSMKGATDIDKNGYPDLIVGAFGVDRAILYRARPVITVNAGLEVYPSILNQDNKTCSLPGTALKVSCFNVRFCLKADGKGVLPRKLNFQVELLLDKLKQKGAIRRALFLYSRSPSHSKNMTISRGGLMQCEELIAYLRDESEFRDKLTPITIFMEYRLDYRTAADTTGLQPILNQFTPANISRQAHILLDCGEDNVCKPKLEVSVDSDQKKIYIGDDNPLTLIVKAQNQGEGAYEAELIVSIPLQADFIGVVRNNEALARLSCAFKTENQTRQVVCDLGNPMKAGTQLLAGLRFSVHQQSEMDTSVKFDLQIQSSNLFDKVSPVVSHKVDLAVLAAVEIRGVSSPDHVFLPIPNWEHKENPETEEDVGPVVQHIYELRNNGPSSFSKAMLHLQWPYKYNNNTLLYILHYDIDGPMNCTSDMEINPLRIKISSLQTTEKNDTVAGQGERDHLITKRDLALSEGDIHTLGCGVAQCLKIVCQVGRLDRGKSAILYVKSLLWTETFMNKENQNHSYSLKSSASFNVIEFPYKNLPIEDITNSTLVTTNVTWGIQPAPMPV
T3 sequence (P26012 43-684, chain 2 of 2): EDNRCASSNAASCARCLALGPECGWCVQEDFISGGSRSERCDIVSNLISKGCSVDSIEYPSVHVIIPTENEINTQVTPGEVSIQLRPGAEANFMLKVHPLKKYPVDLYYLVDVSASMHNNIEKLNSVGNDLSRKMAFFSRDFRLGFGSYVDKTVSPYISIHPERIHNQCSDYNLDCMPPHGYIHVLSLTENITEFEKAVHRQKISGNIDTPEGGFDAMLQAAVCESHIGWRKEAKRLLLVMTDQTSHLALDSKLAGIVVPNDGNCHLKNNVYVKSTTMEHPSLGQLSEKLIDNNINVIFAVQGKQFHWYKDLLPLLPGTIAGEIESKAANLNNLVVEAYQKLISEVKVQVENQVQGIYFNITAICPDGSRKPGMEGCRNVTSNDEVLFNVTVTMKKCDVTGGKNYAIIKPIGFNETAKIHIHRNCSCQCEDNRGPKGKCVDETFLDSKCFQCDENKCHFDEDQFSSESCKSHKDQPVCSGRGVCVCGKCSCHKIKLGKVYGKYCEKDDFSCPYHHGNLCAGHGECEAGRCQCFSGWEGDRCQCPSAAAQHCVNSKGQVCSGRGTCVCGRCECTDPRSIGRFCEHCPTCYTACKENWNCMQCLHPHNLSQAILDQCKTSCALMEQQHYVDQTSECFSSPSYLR

Work on “MAdV-1-IX-2A-GFP virus particles (M1-IX-G), bearing the M1 fiber (from UniProt P19721 1-613) (complex)” yielded a fold increase of the binding enhancement in the presence of Mn2+ [1] of 1.5 fold and a fold increase of virus binding, Mg2+/Ca2+ buffer [2] of 1.3 fold.

With “MAdV-3-IX-2A-GFP virus particles (M3-IX-G), bearing the M3 fiber (complex)” the fold increase of the binding enhancement in the presence of Mn2+ [1] was 3.4 fold, the fold increase of virus binding, Mg2+/Ca2+ buffer [2] was 1.3 fold and the fold increase of virus binding, Mn2+ buffer [2] was 2.7 fold.

“recombinant soluble fiber knob of mouse adenovirus 3 (FK-M3) (domain or fragment)” gave a stoichiometry N [3] of 3, a Kd [1] of 1.21 nM and a Kd [4] of 0.068 nM. For the same molecule, the Kd [5] was 0.069 nM and the Kd [2] was 1.31 nM.

In the case of “soluble human integrin αvβ6 (sITG hαvβ6) (from UniProt P06756;P18564) (receptor)”, the Kd [6] is reported as 0.059 nM, the koff [6] is reported as 5.01e-06 s⁻¹ and the kon [6] is reported as 85000 M⁻¹ s⁻¹.

Molecule “soluble human integrin αvβ8 (sITG hαvβ8) (from UniProt P06756;P26012) (receptor)” has a Kd [6] of 1.32 nM, a koff [6] of 0.000965 s⁻¹ and a kon [6] of 729000 M⁻¹ s⁻¹.

For “soluble mouse integrin αvβ6 (sITG mαvβ6) (from UniProt P43406;Q9Z0T9) (receptor)”, the Kd [6] was under 0.01 nM, the koff [6] was 3.12e-08 s⁻¹ and the kon [6] was 51300 M⁻¹ s⁻¹.

B1: biotinylated fiber knob of mouse adenovirus 1 (FKb-M1) (domain or fragment)
chain: GLPIGNNGTFHTKQDCKIFLSLTRLGPMVHGTFMLQAPQYELTTNGMREITFSFNSTGGLEQPAPVTYWGALDPPPTAKAAEIENQKRVKKRAAPDPPVEPPPKRRGDLAVLFAKVAEQAMELAKEQAVQAQPPEHVNTDWADHMNLLRFMPNTLVYPTAATIAANLQFHDTRLSLRRATLKIRLNGSPDSAYQLGFMLELVGTQSASIVTDTISFWYYAEDY
modifications: biotin (biotinylated by co-expressed protein biotin ligase BirA)
In the case of B1, the “stoichiometry N” value (SEC-MALS) is reported as 3, the Kd [7] is reported as 0.25 nM and the koff [7] is reported as 1.66e-05 s⁻¹. It also gave a kon [7] of 66400 M⁻¹ s⁻¹, a Kd [8] of 1.58 nM and a koff [8] of 0.000127 s⁻¹. For the same molecule, the kon [8] was 80200 M⁻¹ s⁻¹, the Kd [9] was 14.5 nM and the koff [9] was 0.00673 s⁻¹. The kon [9] was 465000 M⁻¹ s⁻¹.

B2: recombinant soluble fiber knob of mouse adenovirus 1 (FK-M1) (domain or fragment)
chain: GLPIGNNGTFHTKQDCKIFLSLTRLGPMVHGTFMLQAPQYELTTNGMREITFSFNSTGGLEQPAPVTYWGALDPPPTAKAAEIENQKRVKKRAAPDPPVEPPPKRRGDLAVLFAKVAEQAMELAKEQAVQAQPPEHVNTDWADHMNLLRFMPNTLVYPTAATIAANLQFHDTRLSLRRATLKIRLNGSPDSAYQLGFMLELVGTQSASIVTDTISFWYYAEDY
notes: source: pET28a expression, purified (Ni-NTA); not shown: His6, N-terminal, kept
B2 was tested, and the Kd [10] was 1.27 ± 0.66 nM.

B3: biotinylated fiber knob of human adenovirus C5 (FKb-H5) (domain or fragment)
chain: TPAPSPNCRLNAEKDAKLTLVLTKCGSQILATVSVLAVKGSLAPISGTVQSAHLIIRFDENGVLLNNSFLDPEYWNFRNGDLTEGTAYTNAVGFMPNLSAYPKSHGKTAKSNIVSQVYLNGDKTKPVTLTITLNGTQETGDTTPSAYSMSFSWDWSGHNYINEIFATSSYTFSYIAQE
modifications: biotin (biotinylated by co-expressed protein biotin ligase BirA)
With B3 the “stoichiometry N” value (SEC-MALS) was 3.
